Data from article PMC4072508, “Genome-Wide Prediction and Validation of Peptides That Bind Human Prosurvival Bcl-2 Proteins” (PLoS Computational Biology, 2014).

The binders below were run against Bcl-xL, Q07817 (assay: peptide SPOT array, c-Myc-tagged receptor at 1 uM or 100 nM, anti-c-Myc-Cy3).
Chain of Bcl-xL, Q07817 (Q07817 1-209): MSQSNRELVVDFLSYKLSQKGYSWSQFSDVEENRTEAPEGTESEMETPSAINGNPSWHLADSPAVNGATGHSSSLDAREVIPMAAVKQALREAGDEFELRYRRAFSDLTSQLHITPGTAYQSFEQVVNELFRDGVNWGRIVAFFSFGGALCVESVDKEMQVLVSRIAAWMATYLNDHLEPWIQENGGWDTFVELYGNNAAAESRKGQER

**Q.** For VENTTDLASILIKDADRLNSGCYELK [TTN], which SPOT signal as a fraction of Bim BH3's signal on the same receptor and array is on record?
**A.** Its SPOT signal as a fraction of Bim BH3's signal on the same receptor and array is 0.02.

**Q.** Which SPOT signal as a fraction of Bim BH3's signal on the same receptor and array does the source give for FERVEQMCIQDKEVGDRVNYIKRSLQ [TRPM7] here?
**A.** The SPOT signal as a fraction of Bim BH3's signal on the same receptor and array was 0.03.

**Q.** With GFANHDVVEVDRNAGQVVHLTLVRRK [INADL] as the binder, how does the SPOT signal as a fraction of Bim BH3's signal on the same receptor and array read?
**A.** The SPOT signal as a fraction of Bim BH3's signal on the same receptor and array was 0.08.

**Q.** PFDCRDYAVVLRKYLDKIYSISMKHP [FOLH1] was tested. Which SPOT signal as a fraction of Bim BH3's signal on the same receptor and array did it give?
**A.** The SPOT signal as a fraction of Bim BH3's signal on the same receptor and array was 0.44.

**Q.** DGVLSFIHHQIIELARDCLTKSRDGL [MAST1] was tested. Which SPOT signal as a fraction of Bim BH3's signal on the same receptor and array did it give?
**A.** The SPOT signal as a fraction of Bim BH3's signal on the same receptor and array was 0.03.

**Q.** YGKVKFTAEELSNMASELAKYGLQLP [IQGAP3] was tested. Which SPOT signal as a fraction of Bim BH3's signal on the same receptor and array did it give?
**A.** The SPOT signal as a fraction of Bim BH3's signal on the same receptor and array was 0.05.

**Q.** For FLRINTIAMRLLAYALDYWSKGQLKA [PANK2], which SPOT signal as a fraction of Bim BH3's signal on the same receptor and array is on record?
**A.** Its SPOT signal as a fraction of Bim BH3's signal on the same receptor and array is 0.19.

**Q.** How did the SPOT signal as a fraction of Bim BH3's signal on the same receptor and array turn out when VTQLRSLVIDLERTAKELDTNTLKNA [TRIM40] was run?
**A.** The SPOT signal as a fraction of Bim BH3's signal on the same receptor and array was 0.03.

**Q.** Which SPOT signal as a fraction of Bim BH3's signal on the same receptor and array does the source give for EVRSSQFARKLWRSLRRISQVSSGET [NBEAL2] here?
**A.** Its SPOT signal as a fraction of Bim BH3's signal on the same receptor and array is 0.62.

**Q.** How did the SPOT signal as a fraction of Bim BH3's signal on the same receptor and array turn out when NKELSELIEQLQKNADQVEKNIVDTE [PPL] was run?
**A.** Its SPOT signal as a fraction of Bim BH3's signal on the same receptor and array is 0.03.

**Q.** With HRNTRNLAAFLGKASDLLRFPVKQLY as the binder, how does the SPOT signal as a fraction of Bim BH3's signal on the same receptor and array read?
**A.** Its SPOT signal as a fraction of Bim BH3's signal on the same receptor and array is 0.91.

**Q.** Which SPOT signal as a fraction of Bim BH3's signal on the same receptor and array does the source give for EMNLQDHIESISKVAEVAGKEYAIEQ [DNAH1] here?
**A.** Its SPOT signal as a fraction of Bim BH3's signal on the same receptor and array is 0.02.

**Q.** GHIYLGAVNRIYKLSSDLKVLVTHET [PLXNA4] was tested. Which SPOT signal as a fraction of Bim BH3's signal on the same receptor and array did it give?
**A.** The SPOT signal as a fraction of Bim BH3's signal on the same receptor and array was 0.08.

**Q.** Which SPOT signal as a fraction of Bim BH3's signal on the same receptor and array does the source give for FSEFIGMIQEIQQAAERLERNFVDSR [RNF123] here?
**A.** The SPOT signal as a fraction of Bim BH3's signal on the same receptor and array was 0.03.

**Q.** DISALTASNLDKKYAEKYSGILEGPV [FIGN] was tested. Which SPOT signal as a fraction of Bim BH3's signal on the same receptor and array did it give?
**A.** Its SPOT signal as a fraction of Bim BH3's signal on the same receptor and array is 0.02.

**Q.** VGNVDECGKKLVEVARRCRDEAIAAC [XXXX] was tested. Which SPOT signal as a fraction of Bim BH3's signal on the same receptor and array did it give?
**A.** Its SPOT signal as a fraction of Bim BH3's signal on the same receptor and array is 0.02.

**Q.** WDEMNVLAHGLLQLGQGLREHAERTR [ANGPTL4] was tested. Which SPOT signal as a fraction of Bim BH3's signal on the same receptor and array did it give?
**A.** Its SPOT signal as a fraction of Bim BH3's signal on the same receptor and array is 0.04.

**Q.** For NRGYYDVAKQLLAAGAEVNTKGLDDD [ANKRD11], which SPOT signal as a fraction of Bim BH3's signal on the same receptor and array is on record?
**A.** The SPOT signal as a fraction of Bim BH3's signal on the same receptor and array was 0.03.

**Q.** For LFQLKFTAKQLEKLAKKAEKDSKAEQ [CHMP1A], which SPOT signal as a fraction of Bim BH3's signal on the same receptor and array is on record?
**A.** Its SPOT signal as a fraction of Bim BH3's signal on the same receptor and array is 0.18.

**Q.** How did the SPOT signal as a fraction of Bim BH3's signal on the same receptor and array turn out when GERLRQSGERLRQSGERFKKSISNAA [MURC] was run?
**A.** The SPOT signal as a fraction of Bim BH3's signal on the same receptor and array was 0.44.

**Q.** Which SPOT signal as a fraction of Bim BH3's signal on the same receptor and array does the source give for FVDINPLTGIILKAAKRFQINIYVKK [SCARB2] here?
**A.** Its SPOT signal as a fraction of Bim BH3's signal on the same receptor and array is 0.16.

**Q.** FTGNNTAVQEDKRVSEQFTATFRRKA [TUBB4Q] was tested. Which SPOT signal as a fraction of Bim BH3's signal on the same receptor and array did it give?
**A.** The SPOT signal as a fraction of Bim BH3's signal on the same receptor and array was 0.41.

**Q.** For LTKAERLSKELLQCGRIIKEEWIEIE [TTC23], which SPOT signal as a fraction of Bim BH3's signal on the same receptor and array is on record?
**A.** The SPOT signal as a fraction of Bim BH3's signal on the same receptor and array was 0.03.

**Q.** DISLSNSGFKLVNFLCDYHQYRDKFS [PION] was tested. Which SPOT signal as a fraction of Bim BH3's signal on the same receptor and array did it give?
**A.** Its SPOT signal as a fraction of Bim BH3's signal on the same receptor and array is 0.17.

**Q.** How did the SPOT signal as a fraction of Bim BH3's signal on the same receptor and array turn out when ATKRETAATFLKKVLKEFGFQNNGFS [NPLOC4] was run?
**A.** The SPOT signal as a fraction of Bim BH3's signal on the same receptor and array was 0.48.

**Q.** Which SPOT signal as a fraction of Bim BH3's signal on the same receptor and array does the source give for HRNTRNLAAFDGKASDLLRFPVKQLY here?
**A.** The SPOT signal as a fraction of Bim BH3's signal on the same receptor and array was 1.4.

**Q.** Which SPOT signal as a fraction of Bim BH3's signal on the same receptor and array does the source give for DFEARKAAIEIARLAERAQQKTLTSA [C4orf22] here?
**A.** Its SPOT signal as a fraction of Bim BH3's signal on the same receptor and array is 0.04.

**Q.** For VYILRKAARRLAQVLRAAGVRVGLLS [CACNA1G], which SPOT signal as a fraction of Bim BH3's signal on the same receptor and array is on record?
**A.** The SPOT signal as a fraction of Bim BH3's signal on the same receptor and array was 0.67.

**Q.** How did the SPOT signal as a fraction of Bim BH3's signal on the same receptor and array turn out when PVQVQQYIKKLYILGGEVAESAQKCT [PAXIP1] was run?
**A.** The SPOT signal as a fraction of Bim BH3's signal on the same receptor and array was 0.05.

**Q.** With RAELTGLARRDADRARKLQETNLRAV as the binder, how does the SPOT signal as a fraction of Bim BH3's signal on the same receptor and array read?
**A.** The SPOT signal as a fraction of Bim BH3's signal on the same receptor and array was 0.51.

**Q.** Which SPOT signal as a fraction of Bim BH3's signal on the same receptor and array does the source give for FGTTLKNCRHLLECAKELDVQIIGVK [AZIN1] here?
**A.** Its SPOT signal as a fraction of Bim BH3's signal on the same receptor and array is 0.03.

**Q.** For DLSSTFVSLADRKVGDWPLSARREKG [TTC31], which SPOT signal as a fraction of Bim BH3's signal on the same receptor and array is on record?
**A.** The SPOT signal as a fraction of Bim BH3's signal on the same receptor and array was 0.21.

**Q.** How did the SPOT signal as a fraction of Bim BH3's signal on the same receptor and array turn out when KVFLNKAADFIEELSSLFKSHSSKRI [MYPN] was run?
**A.** Its SPOT signal as a fraction of Bim BH3's signal on the same receptor and array is 0.13.

**Q.** How did the SPOT signal as a fraction of Bim BH3's signal on the same receptor and array turn out when PHQFDGVPDKLIQALYQVKYNSKKMK [EVI5] was run?
**A.** The SPOT signal as a fraction of Bim BH3's signal on the same receptor and array was 0.48.

**Q.** Which SPOT signal as a fraction of Bim BH3's signal on the same receptor and array does the source give for MDYVGGYALCLDMTARDVQDECKKKG [FAHD1] here?
**A.** The SPOT signal as a fraction of Bim BH3's signal on the same receptor and array was 0.03.

**Q.** Which SPOT signal as a fraction of Bim BH3's signal on the same receptor and array does the source give for RMNLQTMVDTLQEAAQEADAIQEEMN [IFFO2] here?
**A.** The SPOT signal as a fraction of Bim BH3's signal on the same receptor and array was 0.02.

**Q.** LKELDLSGNSDSHSAVKSLCKTLRRP [NLRP1] was tested. Which SPOT signal as a fraction of Bim BH3's signal on the same receptor and array did it give?
**A.** The SPOT signal as a fraction of Bim BH3's signal on the same receptor and array was 0.22.

**Q.** Which SPOT signal as a fraction of Bim BH3's signal on the same receptor and array does the source give for RTNNYQLSDEDRKNGVELTSLRQKVA [GRIPAP1] here?
**A.** Its SPOT signal as a fraction of Bim BH3's signal on the same receptor and array is 0.05.

**Q.** Which SPOT signal as a fraction of Bim BH3's signal on the same receptor and array does the source give for LSSISELSARLHLWAFKMDYETTEKE [FHOD3] here?
**A.** The SPOT signal as a fraction of Bim BH3's signal on the same receptor and array was 0.03.

**Q.** RAELTGLARRLADRARKLQETNLRAV was tested. Which SPOT signal as a fraction of Bim BH3's signal on the same receptor and array did it give?
**A.** Its SPOT signal as a fraction of Bim BH3's signal on the same receptor and array is 0.58.
